Experimental data taken from paper PMC5412566 (The Journal of Cell Biology, 2017).

Experiments:
[1] = biological target: native PhoA (E. coli) [phosphatase: P00634]; experiment: native MS
[2] = biological target: wild-type SecA-SecYEG translocase (SecA bound to SecYEG-inverted inner membrane vesicles) (E. coli) (UniProt P10408); experiment: co-sedimentation
[3] = biological target: SecA(LCt) (locked C-tail) bound to SecYEG-inverted membrane vesicles (E. coli) (UniProt P10408); experiment: co-sedimentation
[4] = biological target: wild-type SecA-SecYEG translocase (SecA bound to SecYEG-inverted inner membrane vesicles) (E. coli, UniProt P10408;P0AGA2;P0AG96;P0AG99); experiment: co-sedimentation
Sequence of wild-type SecA-SecYEG translocase (SecA bound to SecYEG-inverted inner membrane vesicles) (P10408 whole entry, chain 1 of 4): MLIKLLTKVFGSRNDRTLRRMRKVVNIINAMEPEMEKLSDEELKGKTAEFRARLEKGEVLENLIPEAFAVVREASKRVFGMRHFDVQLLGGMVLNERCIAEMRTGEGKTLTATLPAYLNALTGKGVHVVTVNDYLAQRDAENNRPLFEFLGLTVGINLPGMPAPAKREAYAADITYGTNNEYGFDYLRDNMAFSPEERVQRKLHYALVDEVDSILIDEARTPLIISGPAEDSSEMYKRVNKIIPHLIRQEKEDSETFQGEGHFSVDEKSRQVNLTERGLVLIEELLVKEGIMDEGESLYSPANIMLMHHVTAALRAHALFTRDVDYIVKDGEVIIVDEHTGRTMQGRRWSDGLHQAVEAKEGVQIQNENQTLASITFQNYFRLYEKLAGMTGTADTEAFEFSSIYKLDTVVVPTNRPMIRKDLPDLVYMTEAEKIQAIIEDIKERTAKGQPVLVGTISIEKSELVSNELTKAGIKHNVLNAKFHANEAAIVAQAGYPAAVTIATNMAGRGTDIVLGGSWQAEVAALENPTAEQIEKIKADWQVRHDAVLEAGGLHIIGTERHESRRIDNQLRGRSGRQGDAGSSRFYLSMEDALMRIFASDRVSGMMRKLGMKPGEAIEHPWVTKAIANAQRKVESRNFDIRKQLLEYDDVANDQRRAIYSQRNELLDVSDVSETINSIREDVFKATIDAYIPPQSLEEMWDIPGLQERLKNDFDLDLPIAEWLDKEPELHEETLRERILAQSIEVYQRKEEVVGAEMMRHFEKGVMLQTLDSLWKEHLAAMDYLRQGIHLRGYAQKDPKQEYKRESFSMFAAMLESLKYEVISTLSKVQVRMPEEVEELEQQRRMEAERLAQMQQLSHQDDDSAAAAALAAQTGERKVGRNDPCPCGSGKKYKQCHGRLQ
Sequence of wild-type SecA-SecYEG translocase (SecA bound to SecYEG-inverted inner membrane vesicles) (P0AGA2 whole entry, chain 2 of 4): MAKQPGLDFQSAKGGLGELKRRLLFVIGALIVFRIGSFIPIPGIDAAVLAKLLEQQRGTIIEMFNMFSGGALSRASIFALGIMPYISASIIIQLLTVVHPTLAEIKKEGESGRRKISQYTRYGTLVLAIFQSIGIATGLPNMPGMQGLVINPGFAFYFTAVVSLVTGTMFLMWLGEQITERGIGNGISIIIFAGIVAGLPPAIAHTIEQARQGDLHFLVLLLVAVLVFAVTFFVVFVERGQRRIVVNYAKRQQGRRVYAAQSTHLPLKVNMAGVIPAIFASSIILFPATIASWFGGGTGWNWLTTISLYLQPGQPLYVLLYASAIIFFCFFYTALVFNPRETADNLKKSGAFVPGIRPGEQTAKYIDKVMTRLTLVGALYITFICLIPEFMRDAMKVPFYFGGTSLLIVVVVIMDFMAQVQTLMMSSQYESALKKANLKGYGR
Sequence of wild-type SecA-SecYEG translocase (SecA bound to SecYEG-inverted inner membrane vesicles) (P0AG96 whole entry, chain 3 of 4): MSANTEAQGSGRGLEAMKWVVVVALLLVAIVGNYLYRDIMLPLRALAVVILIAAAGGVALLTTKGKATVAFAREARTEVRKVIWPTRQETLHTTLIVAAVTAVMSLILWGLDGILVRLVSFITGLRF
Sequence of wild-type SecA-SecYEG translocase (SecA bound to SecYEG-inverted inner membrane vesicles) (P0AG99 whole entry, chain 4 of 4): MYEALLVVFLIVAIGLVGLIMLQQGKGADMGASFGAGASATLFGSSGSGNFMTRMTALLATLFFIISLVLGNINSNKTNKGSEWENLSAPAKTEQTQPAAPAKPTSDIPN

Sequence of wild-type SecA-SecYEG translocase (SecA bound to SecYEG-inverted inner membrane vesicles) (E. coli) (P10408 whole entry, chain 1 of 4): as the sequence (P10408 whole entry, chain 1 of 4) above
Sequence of wild-type SecA-SecYEG translocase (SecA bound to SecYEG-inverted inner membrane vesicles) (E. coli) (P0AGA2 whole entry, chain 2 of 4, further chain): as the sequence (P0AGA2 whole entry, chain 2 of 4) above
Sequence of wild-type SecA-SecYEG translocase (SecA bound to SecYEG-inverted inner membrane vesicles) (E. coli) (P0AG96 whole entry, chain 3 of 4, further chain): as the sequence (P0AG96 whole entry, chain 3 of 4) above
Sequence of wild-type SecA-SecYEG translocase (SecA bound to SecYEG-inverted inner membrane vesicles) (E. coli) (P0AG99 whole entry, chain 4 of 4, further chain): as the sequence (P0AG99 whole entry, chain 4 of 4) above
Sequence of YncJ(noMTS) (P64459 23-76): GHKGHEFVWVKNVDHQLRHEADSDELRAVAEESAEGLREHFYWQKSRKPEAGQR
Sequence of PhoA (mature domain of proPhoA, signal peptide-less, urea-purified) (P00634 22-471): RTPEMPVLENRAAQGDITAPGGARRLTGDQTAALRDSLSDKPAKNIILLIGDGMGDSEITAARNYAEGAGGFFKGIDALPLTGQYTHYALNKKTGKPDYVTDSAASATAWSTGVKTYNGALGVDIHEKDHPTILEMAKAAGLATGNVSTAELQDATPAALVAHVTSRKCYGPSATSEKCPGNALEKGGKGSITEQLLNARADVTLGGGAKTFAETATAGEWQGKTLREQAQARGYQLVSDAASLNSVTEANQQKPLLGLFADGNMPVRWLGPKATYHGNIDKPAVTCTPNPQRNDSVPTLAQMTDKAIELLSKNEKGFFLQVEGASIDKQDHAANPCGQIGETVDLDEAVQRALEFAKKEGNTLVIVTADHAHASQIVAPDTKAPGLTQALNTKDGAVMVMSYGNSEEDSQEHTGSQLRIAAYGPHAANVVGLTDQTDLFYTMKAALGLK
Sequence of HdeA(noMTS) (P0AES9 22-110): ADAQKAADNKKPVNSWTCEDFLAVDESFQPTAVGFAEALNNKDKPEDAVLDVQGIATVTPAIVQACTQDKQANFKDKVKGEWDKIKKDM
Sequence of Lpp(noMTS) (P69776 21-78): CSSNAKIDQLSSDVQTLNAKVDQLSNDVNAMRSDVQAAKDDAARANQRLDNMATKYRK
Sequence of SecA(LCt) (locked C-tail) bound to SecYEG-inverted membrane vesicles (E. coli) (P10408 whole entry, chain 1 of 4): as the sequence (P10408 whole entry, chain 1 of 4) above
Sequence of SecA(LCt) (locked C-tail) bound to SecYEG-inverted membrane vesicles (E. coli) (P0AGA2 whole entry, chain 2 of 4, further chain): as the sequence (P0AGA2 whole entry, chain 2 of 4) above
Sequence of SecA(LCt) (locked C-tail) bound to SecYEG-inverted membrane vesicles (E. coli) (P0AG96 whole entry, chain 3 of 4, further chain): as the sequence (P0AG96 whole entry, chain 3 of 4) above
Sequence of SecA(LCt) (locked C-tail) bound to SecYEG-inverted membrane vesicles (E. coli) (P0AG99 whole entry, chain 4 of 4, further chain): as the sequence (P0AG99 whole entry, chain 4 of 4) above

## native PhoA (from UniProt P00634 22-471) (enzyme)
[1]
  stoichiometry N: 2

## YncJ(noMTS) (from UniProt P64459 23-76) (natural protein)
[2]
  Kd: > 20 µM

## PhoA (mature domain of proPhoA, signal peptide-less, urea-purified) (from UniProt P00634 22-471) (natural protein)
[3]
  fold reduction of affinity against the wild-type translocase: 18 fold

## Lpp(noMTS) (from UniProt P69776 21-78) (natural protein)
[2]
  Kd: > 20 µM

## HdeA(noMTS) (from UniProt P0AES9 22-110) (natural protein)
[2]
  Kd: > 20 µM

## MKQSTIALALLPLLFTPVTKARTPEMPVLE [signal peptide of proPhoA, proPhoA(1–30)]
[4]
  Kd: ~3 µM
